The source of these data is the NTF2 design screens of Basanta et al. (2020).

This data set in a line: protease stability score; higher = more stable; yeast display proteolysis, trypsin and chymotrypsin.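 Also: log10 excess protease needed over predicted unfolded state with 0 meaning unfolded.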
Consider “DEKDVEKLQRLIKTGNEDHIANEADPNVQVTIGDDVIHGREEAVRQIQKWQRQVDHVEIKSMESQGEKVHVRRVLTVNGKNFEFTLQAEMHNGTLTHFDIQFRSEEDNKRFLKVVS”, for which the protease stability score came out at 0.32.

“DEDAEKHWRTFLRNQKTGDEQKMRDQVDPNARASIGDQEVEGREKIVRELVEEFRHMHVQINWKSLTAHNGKVHAHADAQVDHNGRPQTYKITASAQFSNGKIKEFKMQRRP” displayed a protease stability score of -0.013.

With “DEEHQKHFEQFVKAMETGDEERLAQLVDKDVEISYGDKTIHGREELRKRVREIKEELRLTMDFKRITVRGDKVQANFKASMNHNGQPVSFKAHVTVTAHNGTIKSVSLSNHK”, the protease stability score was 1.1.

For the sequence “DDHKVEHVNRLFETNNPDKLAKNVDPNADNQVGDKRYHGRQKIHTFLKNMYTRVDHVDIHRISVNGNRLQIDATYDIDGRRFYADMRFRLHNGRIKEVRVRFTNEEQDKVVKEAVK”, the protease stability score was determined as 0.985.

Consider “DEEVSEAVQRYLNALKHNNPDQVQEQMDPNARVQYGDKVLTGREDIKTFMDTKIEQMRLEIKSVSVDVHGEEVRVEADVVYTHNGQPRRNKITITARVHNGVFKSMRVETRG”, for which the protease stability score is -0.064.

On to “DEKHVKKVVDRVLDALEKKNKDELVKLVKPDVEFHVADTKFEGTDQLHKYYDKVFRKGVEFHVKEVKVEGNKAQVRYDVRAGGHQETVQFEVTVKDERVDRARAEMTEKYKKLVTKG”, for which the protease stability score amounted to 0.086.

Consider “DPKKFHKAAVLLAQAAMNGDYKRVVELYKPDARLTLVDQEVQGQEQIKKHAKKFYDRGKRFQFKRVEVTGDYVKLQFDIEVGGTRVTFEARVHAQDDTVDEYELRFDDTAREMQERG”, for which the protease stability score came to 0.073.

Consider “DEQNQIKKIADDLETAARTNDPDKLLNMVDPNAKITYGDEEVHGRREAKRWLKEVNDHVDHMHVDIKRVHASGDKFTLRYRLVLVQNGKKDTTRVVATLRRTDGRVQIQSIDSG”, for which the protease stability score stood at 0.033.

For the sequence “DEEAQKQAEHLIRNLEQGNEDQIERLADPNARFQYGNKEINGREEMSTWVRRYKKQARLEIKSVSADAQGDKITVDVHFVIDINGRPSTMRVNVVMSIDNGSINHMVFEIDEEQEKELNK”, the protease stability score was determined as 0.202.

“DEDKQRKRAETAAHIVENNNPDEQNKLADKDVTMQVGETQVHGREDLKELMEEMREQFDHIRVRSFDAHGNKVRLRFHAEYNGVTLEFVIINNYHNGKVQSINLRVTNPEEFRKAQG” had a protease stability score of 0.122.

“DSHLEHKAHEWVKAVNENDPDRLVQLMDKDVKIDVGDKKFSGRENYATEVKKEQDEARVEWKDVKLSADNGKLELQADVVRRHNGQPQRWKVENIYTDKNGVAKYLTNKSKP” had a protease stability score of -0.423.

“DEEQLKMARELFEIMHTGDPDQLKEQFPPDAHFNIGDKRVSGMTEFARQVENEHKEQRRSIDIKSMDVNSPHVTIQARFEVEHNGQPHTSTATIQFQFQNGRFLNMRVQSHQ” yielded a protease stability score of -0.106.

“DEDAVRKAIELFKQQETGNPEEVKKLADPNARMVVGDKTFTGMDTINEHLRKLRKEARIRNDIKRYEVNGDKATIEFRQERDHNGRPDTHLVKITIKVTNGRVKVIEIQDKS” came in with a protease stability score of 0.175.

On to “DEEDQKELADEMVKVLETGDEDRFSQLLDKDVNINVGDQTYSGSEQAVKWFRELLDNVDSFKFDRVRVNGDQLQIHAILDVNGHDIHVVFQVQFHNGRAQHLNMRYTDDEEKKRFDS”, for which the protease stability score amounted to 1.34.

“DEEKKANHFNKEFDRNVQRNNETELRKMVDPNARVNVGEQNYSGRNKMVKIITDWLRKYDKFTIDVRRIDVHGNRIFIDFEMVVVSNGQRRTTEIRVVVEEHNGRLHIRVWEIT”: the protease stability score is 0.516.

In turn, “DDDLVRKLNHMVKVMQNGDPDKIVDQMDPNARLIVGDKNVHGRDEARRFMEKVNKHLRFEIKSVTLHDRPNNANADVDANFHINGRPVRLKYIIVVSVHNGRIKEVQLRLSEDQERKLEK” showed a protease stability score of 0.71.

As to “DDDEMRELIKSIEEVLTDGDPDEFLKQIDPNAKAQYGDTRVSGSEEIRKMAEKFSDRVDHVDVRDIKVSGDTATFDMQIDHNGRNDTVIMIVEAHNGKVKHVQYHKG”, the protease stability score was determined as 0.142.

The sequence “DEERQQKVADDLATIMTNGNPDQMLELADKDVKAKYGDTEIHGREKVREYWKTIRDQADHIHIDTFKAENGQVDIQAHAKFNGKDYKFNLRIEFDNGRIKSIVVQEQ” showed a protease stability score of 0.278.

With “DEERLAKEVNDQYQHIMDTGDPDQARKLFDENARVDIGDKQYHGREEAVEAFQQRMNRVDHIDIKIDEVKVRNGEIDVKFEINQNSNGKNVHRNIRFTMRVNGDKYAIVDMHVQ”, the protease stability score was found to be 0.367.

“DNEKVARNAADKLMTAINTGDPDQFVKLFDENAHVDVGDKTWRGRDKLKEWARKIVEQVDHLRARVTHMDVDGDKASVVFVVTLNKNGKEHSEQHEATAEVSGEQAVFKSLRHK” registered a protease stability score of 1.38.

In turn, “DEEDLTRLHKLWRNNNWKELVNQMDPNARVTVGDEVIQGRENVTHWADRVEHQIDHYEIKDFRRQGNKILVLFRAEVNGQRFEAIVAVLMVNGDVHHLEVRFRDERDEKKFKEHVS” had a protease stability score of 1.48.

“DDDRRRQAEEILKIFETGDPQKLRSQFDPNARMHYGDKTIHGMEHAAESMERWQNEMRIELKSYSFRKQGDKVQIDAHFVVHHNGKPDTVKIHIRMELDGDKVREVSVEHTQ” yielded a protease stability score of 1.2.

For the sequence “DEELLKIAKQFFEAEQNGDEDELKEQMDPNANLEYGDRTVHGRENIARWVSRVLREARIDFKEISVQDHNGRAKIHVRFVIDVNGRPNRMTRIVVVEQHNGRIKYLNIRMSEEQLKKLKE”, the protease stability score was found to be 0.132.

In turn, “DEKDVERVLEAIKTNNRSEIRNQADPNARARVGDKKLHGMEDAAHKFAKFLDRADNHEVKDVSVDGDRATMDVKVRVDGEDVRFVVKFQVKNGRITHLEVEATSDHVDRRAEQAMK” had a protease stability score of 0.581.

On to “DDKHAEEVAELMTRNNFKQLAHQADPNVKIVVGEKKWHGREQMRTFMKILTKRVDHLNIQSYDVDNGRVKIDYVVNIDGQEIHVRVEIEFKNGRIQRYVLRATSDENQKELNKALS”, for which the protease stability score is 0.08.

For “DPKKAHEVAEEVMKAFVNGNDEQVKRLLKPDVTAKVADRETQGPEQIVRYLRRFDKLGVQYHEEETRKEGNRVEVHTKYKKGDQEATVTVVYEADNGKVDRIEVRYDEEMKKLFEKG”, the protease stability score came to 0.279.

In turn, “DERDHVRRLLNTWLKVVKRNDEDQARRLADPNARVEVGDKTYSGDEKVVELMHKIRQQYDSIDIHLHTVKREGDFIHAKAKMDAKVNGKQEDVTMFIWFKQHNGEWHILQVIIK” yielded a protease stability score of 0.723.

As for “DEEHVKKIIKKVADDLQRGDEDNLKHLMDKDVRVEIGDKEVRGKDEAAKELAKFLSRADHFQVDHVDVKGNNARIHVLVNINGRERRVTLILTMHNGRLKNVRFDPENEQTLRN”, the protease stability score came to 1.18.

In turn, “DSRDNRAATRLRQAHESGDPDQIRDNVDPNATIQVGDKSIHGMESWAREEHKKHRELKVEIKDFRQSASNGHVKATIDRVDNHNGRPQRTTVDIHIVFHNGKVKSIDVKTTK” registered a protease stability score of -0.481.

The sequence “DKEDVDHLERIMRKGDWDQLKDHADKDVTVVVGDRNIHGREKANNFLKRFKERVDHQEVRRLDVSGNEVVVDMVFNVNGRKIRATVVAVAHNGRLKEVVMRFTSEDDKRRATEAFD” registered a protease stability score of 0.454.

Regarding “DHKHLQEQARRLVDALVTGDPEEAANLADPNARARIGDKTIHGREQFRNAMQRFSNQADHVQVDHFTVQGDKVQVKMSINVNGQSFDVVMVARMDNGHIRHIRFDPDQIRQVQG”, the protease stability score was found to be 0.052.

As for “DEEAVKTLEHMFEAVRDGNPDEVKKQVDPNVKIEIGDKTYKGKDQWAQDVETKKDEMRFTYHSIEFKNEPNRVKISIDRTETHNGQPRRHHVDMEARVHNGVIVRMKAKESG”, the protease stability score is -0.124.

For “DEQSEAEKFARDIQKIANHNNFERLARMADKDVKYNVGDKVITGEEKAIEHHRRLQKQFDSMRLEIESVRVQGEKIVVVARYTVEVNGTTRSERFVLVAEVHNGTIRIKTVQQG”, the protease stability score was -0.167.

On to “DHERLKEFIKIQQENNPDQLRNQMDPNVKARVGDKEFKGREQVVKWLKRIMDQADHIHYDDLKSQGNSVTINAVVEVNGKSFQYNMVVEFHNGRIREIKVEVRNHRVKEILERIEG”, for which the protease stability score was 1.62.

“DEKEDKKVLERMAKLFVSGNKEEVQKMGKDDVEVVYGDETYHGPDAARKVIERVKKLGAKVEYKEVHVEGDTMTAKVEADIAGKRVRFHVTYKATGNRVDRMEVKYTKEAQEVIKHG”: the protease stability score is 0.895.

In turn, “EDEVLKELLEAVRHNDPDKIKELIDPNARFRVGDKSLHGMEEAAEQYARMMKRVDHIQIDSMSAHGDTFTVDQRFHFDGRTLSVTIRIRIHNGRIEELVIEVRSEEDKKNLDNLLS” yielded a protease stability score of -0.097.

The sequence “DEEDVKKAETLIKNGDWERIANHLDPNAKATYGDKTFHGHEELKRVIKNLQDQVDSLHIHKVDVQGNSVIVSADLHVNGETLKMTFVMHVHNGRVKEVSANVTSSELKELLDHMLS” returned a protease stability score of 0.749.

For “DEDNAERVHTALDILERGNPEEVKKMFRDDVRATIGDTVIHGMTNFAHYMQRLMDHARVNITIRSWSVKNGRVEIDAEIHANHNGQPYHDRFKIKAEVTNGRFKYLQYDIDPDFLRDMTK”, the protease stability score was 1.25.

Consider “DDELKRIVHQLMEALKHGDNDQWRKNVDPNVSVKIGDKELHGREEFARQIQRIKRELHLEIDIHDVKVKNGRADLDMTETRSENGQPETNRLRISYVIDNGKFKSVTLNIKQ”, for which the protease stability score turned out to be 0.222.

With “DEEDIRRIVHEFNRAVQRGNPDDVVRLLDKHAKIVVGEFDVTGREDARKFAEQLRSMADHVTIKSMSVQGDKAHVVIVFDINGKKLTLTFEVQLHNGRVQNLHVDVRDEEEFSRNVG”, the protease stability score was determined as 0.782.

“DENENEEFARKFLENLRTGDPDKVMELVDPNAHVTIGDKEIKGRDQVKRWVEEHKRRADHLDVRDMSVDGEKITARIVVNINGENKYQKVEISIHNGHMTHMSVHDE” yielded a protease stability score of 1.12.

With “DEELVDQVKSFIELLQKGNEDELMKQLDEDAKIHYGDKTIHGREQVREWVKRFKDEMRQKIDSVQFREKPNRVSMKADMSYTQNGTPHDQQIDATFRAHNGRIKQVNIQLTK”, the protease stability score is -0.084.

The sequence “EHEQSKLMEHLLRIVETGDDDEFRKNADPNVKFVYGDKEYDGREEAAKALREIKTELRFQLNDVEIRVENGVIEINYDFTANHNGRPQRRTQRATAEYDNGKLKSWSVRDDG” yielded a protease stability score of -0.172.

Turning to “DERKSAENFFHTLVKVMETGDEDKARKMFDENADAEVGDTEYHGREQLSKYMMTLVKNIDHIRLDLRDMHIEGDKIDIHADVEYRVNGQRTTNKLTVDVEIDNGRNKAQDIKFK”, the protease stability score is 0.214.

As to “DDHKNRERAKEIAKQFQHNNPEDLRKMFDKDARLDLGSQQYHGREDVNRALSHLSKRIDHYEIKDIKVKGDNIDIQAVVTVNGRRYSLKIILRFSNGKAKEVHFHVS”, the protease stability score was found to be 0.997.

Turning to “DEEDLRTRASEFNKVLENNDPDRLNKLADKDATANYGDHEYHGREDIHHMAETMVRQVDRIEIKHVQARNGRVKVDLIMRVNGKEVKVDVTMEFHNGHLKLVTFDPDQVRKVEG”, the protease stability score is 0.673.

As for “DDEAQRVFEDWLENVKKGDEDHAVQLADPNADFVIGDKTYHGREQLKREIKHERDRLRREMRIQDFDDQPPRIDIKFEFTNQHNGKPSSDTAVMKLQMHNGDVQALVVTQHR”, the protease stability score is -0.302.
